Patent publication US20150329594A1 (University of California, published 2015)
“And” between values parts separate entries of the source, which are not always exact repeats. Equal values may be shown once. Read-outs that look alike come from different tables or passages of the source. Bridge positions count the residues as written; N and C are the ends. Square brackets hold non-standard residues; d marks the D form. Trp(1-Me) = Cn1cc(C[C@H](N)C(=O)O)c2ccccc21

How the values were obtained:
Assay in all cases: cell-based or functional assay
[1] = molecular target: T1, human complement protein C3 (human, UniProt P01024 23-1663)
[2] = molecular target: T1, human complement protein C3; remark: listed apart in the source
[3] = molecular target: T1, human complement protein C3; remark: listed apart in the source
[4] = molecular target: T1, human complement protein C3; remark: listed apart in the source

T1 sequence (P01024 23-1663 limits assumed): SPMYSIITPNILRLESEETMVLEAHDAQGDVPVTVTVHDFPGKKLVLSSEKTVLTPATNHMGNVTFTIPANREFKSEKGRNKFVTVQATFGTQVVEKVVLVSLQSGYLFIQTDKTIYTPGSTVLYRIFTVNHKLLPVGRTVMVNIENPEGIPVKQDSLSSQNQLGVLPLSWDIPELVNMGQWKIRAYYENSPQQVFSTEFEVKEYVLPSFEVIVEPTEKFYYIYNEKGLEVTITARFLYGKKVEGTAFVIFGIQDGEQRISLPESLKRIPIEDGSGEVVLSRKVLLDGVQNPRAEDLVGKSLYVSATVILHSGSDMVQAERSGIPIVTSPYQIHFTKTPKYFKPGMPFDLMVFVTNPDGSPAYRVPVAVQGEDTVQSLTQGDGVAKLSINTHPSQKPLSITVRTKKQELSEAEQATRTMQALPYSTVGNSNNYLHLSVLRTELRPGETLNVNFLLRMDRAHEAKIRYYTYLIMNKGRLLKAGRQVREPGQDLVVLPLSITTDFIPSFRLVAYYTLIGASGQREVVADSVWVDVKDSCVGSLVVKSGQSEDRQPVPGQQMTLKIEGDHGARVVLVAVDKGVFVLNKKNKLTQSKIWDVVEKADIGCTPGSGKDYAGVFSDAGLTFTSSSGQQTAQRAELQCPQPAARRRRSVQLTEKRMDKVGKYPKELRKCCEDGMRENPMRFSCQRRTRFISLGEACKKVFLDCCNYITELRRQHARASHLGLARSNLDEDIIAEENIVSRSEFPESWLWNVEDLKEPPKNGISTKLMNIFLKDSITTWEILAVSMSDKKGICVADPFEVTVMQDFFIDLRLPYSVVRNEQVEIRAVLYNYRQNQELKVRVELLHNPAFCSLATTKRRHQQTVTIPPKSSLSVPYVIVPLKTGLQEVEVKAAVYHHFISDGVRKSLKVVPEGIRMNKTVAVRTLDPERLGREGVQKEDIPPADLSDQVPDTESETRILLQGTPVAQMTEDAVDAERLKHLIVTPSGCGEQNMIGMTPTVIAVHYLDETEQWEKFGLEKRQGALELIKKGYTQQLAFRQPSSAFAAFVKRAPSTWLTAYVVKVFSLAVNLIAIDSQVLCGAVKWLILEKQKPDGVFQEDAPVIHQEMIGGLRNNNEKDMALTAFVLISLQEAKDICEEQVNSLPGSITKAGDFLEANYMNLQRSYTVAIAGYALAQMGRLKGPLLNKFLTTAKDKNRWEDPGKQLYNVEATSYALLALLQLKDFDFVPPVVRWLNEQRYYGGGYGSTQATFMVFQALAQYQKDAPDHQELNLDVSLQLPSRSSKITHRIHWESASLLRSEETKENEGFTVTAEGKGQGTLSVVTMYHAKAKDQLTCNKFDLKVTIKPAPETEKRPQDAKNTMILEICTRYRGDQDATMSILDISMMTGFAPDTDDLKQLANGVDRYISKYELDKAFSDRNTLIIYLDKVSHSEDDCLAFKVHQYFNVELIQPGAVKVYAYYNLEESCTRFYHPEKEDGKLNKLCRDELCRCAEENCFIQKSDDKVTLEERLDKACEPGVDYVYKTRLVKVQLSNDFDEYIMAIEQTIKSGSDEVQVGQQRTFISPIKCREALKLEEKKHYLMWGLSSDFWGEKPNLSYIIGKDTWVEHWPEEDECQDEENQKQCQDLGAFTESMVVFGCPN

| IC50 (assay not named in Table 7; preliminary C3b ELISA by paragraph 235) [1] | C3b ELISA IC50 [2] | C5b-9 ELISA IC50 [2] | Lysis IC50 [2] | C3b ELISA IC50 [3] | C5b-9 ELISA IC50 [3] | RPE cell assay medium C5b-9 ELISA, % of positive control (peptide at 1 µM) [4] | RPE cell-based assay, confocal imaging of deposit-associated C5b-9, % of positive control (peptide at 1 µM) [4] | Binder | Hemolytic assay IC50 [3] |
| --- | --- | --- | --- | --- | --- | --- | --- | --- | --- |
| 250000 nM | 2600 nM and 1100 nM | 2000 nM and 1000 nM | 3300 nM and 1200 nM | 2580 nM | 2020 nM | 61.4 % of positive control | 55.3 % of positive control | Ac-RCVWQDWGAHRCT-NH2 (disulfide 2-12; SMILES CC(=O)N[C@@H](CCCNC(=N)N)C(=O)N[C@H]1CSSC[C@@H](C(=O)N[C@H](C(N)=O)[C@@H](C)O)NC(=O)[C@H](CCCNC(=N)N)NC(=O)[C@H](Cc2c[nH]cn2)NC(=O)[C@H](C)NC(=O)CNC(=O)[C@H](Cc2c[nH]c3ccccc23)NC(=O)[C@H](CC(=O)O)NC(=O)[C@H](CCC(N)=O)NC(=O)[C@H](Cc2c[nH]c3ccccc23)NC(=O)[C@H](C(C)C)NC1=O) [Peptide I, Ac-RCVWQDWGAHRCT-NH2] | 3330 nM |
| 620000 nM | 1700 nM and 600 nM | 1100 nM and 600 nM |  | 1740 nM | 1130 nM | 44.6 % of positive control | 14.8 % of positive control | RSICVXQDWGAHRCT (N-terminal acetyl; C-terminal amide; disulfide bridge Cys2-Cys12; meW (Trp methylated at the indole amide position) at position 4 (filing's numbering from -1; 6th residue of the chain)) [Peptide VI, Ac-RS-ICVme…-NH2] | 2230 nM |
| 300000 nM | 1400 nM and 500 nM | 1100 nM and 600 nM |  | 1420 nM | 1070 nM | 50 % of positive control | 20 % of positive control | Ac-RCV[Trp(1-Me)]QDWGAHRCT-NH2 (disulfide 2-12; SMILES CC(=O)N[C@@H](CCCNC(=N)N)C(=O)N[C@H]1CSSC[C@@H](C(=O)N[C@H](C(N)=O)[C@@H](C)O)NC(=O)[C@H](CCCNC(=N)N)NC(=O)[C@H](Cc2c[nH]cn2)NC(=O)[C@H](C)NC(=O)CNC(=O)[C@H](Cc2c[nH]c3ccccc23)NC(=O)[C@H](CC(=O)O)NC(=O)[C@H](CCC(N)=O)NC(=O)[C@H](Cc2cn(C)c3ccccc23)NC(=O)[C@H](C(C)C)NC1=O) [Peptide III, Ac-RCVme…-NH2] | 2250 nM |
